Assay results reported in patent US20050214830A1, “G protein-binding proteins and polynucleotides encoding the same” (Wyeth, priority 1998, published 2005).

B1: 5HT-R: 7-tm domain G protein-coupled serotonin receptor expressed as control in the apoptosis assay (protein, UniProt P08908 1-422, looked up)
5-hydroxytryptamine receptor …: MDVLSPGQGNNTTSPPAPFETGGNTTGISDVTVSYQVITSLLLGTLIFCAVLGNACVVAAIALERSLQNVANYLIGSLAVTDLMVSVLVLPMAALYQVLNKWTLGQVTCDLFIALDVLCCTSSILHLCAIALDRYWAITDPIDYVNKRTPRRAAALISLTWLIGFLISIPPMLGWRTPEDRSDPDACTISKDHGYTIYSTFGAFYIPLLLMLVLYGRIFRAARFRIRKTVKKVEKTGADTRHGASPAPQPKKSVNGESGSRNWRLGVESKAGGALCANGAVRQGDDGAALEVIEVHRVGNSKEHLPLPSEAGPTPCAPASFERKNERNAEAKRKMALARERKTVKTLGIIMGTFILCWLPFFIVALVLPFCESSCHMPTLLGAIINWLGYSNSLLNPVIYAYFNKDFQNAFKKIIKCKFCRQ
B2: BBP1: novel BAP binding protein, SEQ ID NO:2; two-transmembrane protein with 'DRF' motif; expressed from pOZ363 (protein, listed as Homo sapiens)
chain: MHILKGSPNVIPRAHGQKNTRRDGTGLYPMRGPFKNLALLPFSLPLLGGGGSGSGEKVSVSKMAAAWPSGPSAPEAVTARLVGVLWFVSVTTGPWGAVATSAGGEESLKCEDLKVGQYICKDPKINDATQEPVNCTNYTAHVSCFPAPNITCKDSSGNETHFTGNEVGFFKPISCRNVNGYSYKVAVALSLFLGWLGADRFYLGYPALGLLKFCTVGFCGIGSLIDFILISMQIVGPSDGSSYIIDYYGTRLTRLSITNETFRKTQLYP
B3: BBP3: 221 amino acid BBP family protein (short form), SEQ ID NO:6; expressed from pFL12 (protein, listed as Homo sapiens)
chain: MAGGVRPLRGLRALCRVLLFLSQFCILSGGESTEIPPYVMKCPSNGLCSRLPADCIDCTTNFSCTYGKPVTFDCAVKPSVTCVDQDFKSQKNFIINMTCRFCWQLPETDYECTNSTSCMTVSCPRQRYPANCTVRDHVHCLGNRTFPKMLYCNWTGGYKWSTALALSITLGGFGADRFYLGQWREGLGKLFSFGGLGIWTLIDVLLIGVGYVGPADGSLYI

Tests used:
[1] = system: Human Ntera2 (Nt2) stem cells; test: Staurosporine-induced nuclear condensation (apoptosis) in transfected Nt2 stem cells; type: cell-based
Description: Mammalian expression plasmids. BBP cDNAs were modified by polymerase chain reaction (PCR) for expression from the vector pcDNA3.1 (Invitrogen Corp., Carlsbad, Calif.). BBP1 cDNA was amplified from pBBP1-fl (ATCC #98617); from the third potential translation start site to the translation stop codon, adding a 5′ EcoRI and a 3′ SaII site for cloning. The BBP1 cDNA contains three potential translation starts (codons 1, 30, and 63). The third start site was chosen for the described experiments because the first two potential initiating codons lack appropriate sequence context for efficient translation initiation (see Kozak, 1996), and based on similarities of the protein derived from the third start site with a putative BBP1 orthologue from Drosophila melanogaster (Genbank accession M941984). FIG. 1 depicts this minimal BBP1 translation product to optimize the alignment with the other BBP subtypes. The PCR primers were 5′-TGGTGAATTC GAAAGTGTCG GTCTCAACG ATG G [SEQ ID NO:36] (+strand) and 5′-CTTCGTCGAC TTATGGATATAATTGCGTTTTTC [SEQ ID NO:37] (−strand). The PCR product was digested with EcoRI+SaII and cloned into pcDNA3.1/EcoRI−XhoI to create pOZ363. BBP2 and BBP3 expression plasmids were similarily engineered. BBP2 was amplified from pOZ359 (ATCC #98851; using primers 5′-TTCCGAATTC AAGATGGTGCTAGGTGGTTGCCC [SEQ ID NO:38] (+strand) plus 5′-TTCCCTCGAG TTAGTAAACAGTGCACCAGTTGC [SEQ ID NO:39] (−strand). The PCR product was digested with EcoRI+XhoI and cloned into pcDNA3.1/EcoRI−XhoI to create pFL1 1. BBP3 was amplified from pOZ350 (ATCC #98712 using primers 5′-TTTTGAATTC GCAAG ATG GCG GGA GGG GTG CGC [SEQ ID NO:40] (+strand) plus 5′-TTGGCTCGAG CTAAATGTACAAAGAGCCATCTG [SEQ ID NO:41] (−strand). The PCR product was digested with EcoRI+XhoI and cloned into pcDNA3.1/EcoRI−XhoI to create pFL12. Mutation of the arginine codon within the ‘DRF’ motif of each BBP cDNA was performed using the QuickChange system (Stratagene Co., La Jolla, Calif.). Oligonucleotides were synthesized and purified by Genosys Biotechnologies, Inc. (The Woodlands, Tex.). The R138 codon of BBP1 in pOZ363 was changed to an alanine codon using the oligonucleotide 5′-GG TTGGGAGCAGATGCATTTTACCTTGGATACCC [SEQ ID NO: 42] and its exact reverse complement. The changed nucleotides are underlined. The R138 position of BBP1 in pOZ363 was changed to E using the oligonucleotide 5′-GG TTGGGAGCAGATGAATTTTACCTTGGATACCC [SEQ ID NO:43] and its exact reverse complement. The R167 position of BBP2 in pFL11 was changed to E using the oligonucleotide 5′-CTGGGATGTTTTGGTGTGGAT GM TTC TGT TTG GGA CAC AC [SEQ ID NO:44] and its exact reverse complement. […]

rat Gαs = target: T1, rat Gαs (Rattus norvegicus, UniProt P63095); test: Yeast 2-hybrid (Y2H) bioassay for BBP interaction with Gαs; conditions: BBP intracellular loop as Gal4 DNA-binding domain fusion; C-terminal region of Gα as Gal4 activation domain fusion; compared to vector
T1 construct: fusion proteins containing C-terminal regions of Gα proteins in Y2H assays; expressed in transfected cells; host or cells: yeast strain CY770, plasmid pACT2
Description: (§1) Yeast 2-hybrid assays. Y2H expression plasmids were constructed in the vectors pAS2 and pACT2 (Wade Harper et al., 1993). Strain CY770 (Ozenberger and Young, 1995) served as the host for Y2H assays. Sequences encoding the BBPI intracellular loop were amplified using the oligonucleotides 5′-CCTTCC ATGGAAGTGGCAGTCGCATTGTCT [SEQ ID NO:24] plus 5′-AACACTCGAG TCAAAACCCTACAGTGCAAAAC [SEQ ID NO:25]. This product, containing BBP1 codons 185 to 217, was digested with NcoI+XhoI and cloned into pAS2 cleaved with NcoI+SaII to generate pOZ339. Sequences encoding the BBP2 intracellular loop were amplified using the oligonucleotides 5′-CCATG GCCACTTTACTCTACTCCTTCTT [SEQ ID NO:26] plus 5′-CTCGAG TCA AAT CCC MG TCC TCC MG CG [SEQ ID NO:27]. […]
(§2) The various combinations of plasmids were transformed into strain CY770 by standard protocols. […] Cells were concentrated by centrifugation, counted and 10-fold serial dilutions made from 10^4 to 10^8 cells per ml in sterile water. […]
(§3) BBP1 contains a structural motif known to be a Gα protein activating sequence in the related G protein-coupled receptors. The intracellular sequences of each BBP were expressed as fusion proteins and assayed. for physical interactions with fusion proteins containing C-terminal regions of Gα proteins in Y2H assays.

rat Gαo = target: T2, rat Gαo (Rattus norvegicus, UniProt P59215); test: Yeast 2-hybrid (Y2H) bioassay for BBP interaction with Gαo; conditions: BBP intracellular loop as Gal4 DNA-binding domain fusion; C-terminal region of Gα as Gal4 activation domain fusion; compared to vector
T2 construct: fusion proteins containing C-terminal regions of Gα proteins in Y2H assays; expressed in transfected cells; host or cells: yeast strain CY770, plasmid pACT2
Description: as §1, §2, §3

rat Gαi2 = target: T3, rat Gαi2 (Rattus norvegicus, UniProt P04897); test: Yeast 2-hybrid (Y2H) bioassay for BBP interaction with Gαi2; conditions: BBP intracellular loop as Gal4 DNA-binding domain fusion; C-terminal region of Gα as Gal4 activation domain fusion; compared to vector
T3 construct: fusion proteins containing C-terminal regions of Gα proteins in Y2H assays; expressed in transfected cells; host or cells: yeast strain CY770, plasmid pACT2
Description: as §1, §2, §3

[2] = recombinant expression in Nt2 stem cells, 100 nM staurosporine for 3 hrs

T3 sequence (P04897 213-355 limits assumed): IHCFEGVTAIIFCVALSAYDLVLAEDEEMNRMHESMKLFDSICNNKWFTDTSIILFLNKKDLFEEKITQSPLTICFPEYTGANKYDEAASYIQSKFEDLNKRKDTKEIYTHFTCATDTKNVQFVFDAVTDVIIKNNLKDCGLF
T2 sequence (P59215 213-354 limits assumed): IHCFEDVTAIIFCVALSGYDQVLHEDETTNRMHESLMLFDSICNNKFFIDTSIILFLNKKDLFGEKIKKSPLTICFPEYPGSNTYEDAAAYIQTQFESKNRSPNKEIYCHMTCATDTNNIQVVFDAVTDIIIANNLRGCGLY
T1 sequence (P63095 235-394 limits assumed): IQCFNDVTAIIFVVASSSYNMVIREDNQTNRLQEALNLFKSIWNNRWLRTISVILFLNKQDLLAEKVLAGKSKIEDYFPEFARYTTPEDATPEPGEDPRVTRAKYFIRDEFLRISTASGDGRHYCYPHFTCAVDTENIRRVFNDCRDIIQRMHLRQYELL

Row | Molecule | suppression of staurosporine-induced nuclear condensation (antiapoptotic activity), in words [1, 2] | physical interaction with Gαs (Y2H growth response) (rat Gαs) | physical interaction with Gαo (Y2H growth response) (rat Gαo) | physical interaction with Gαi (Y2H growth response) (rat Gαi2) | cell death induced by staurosporine ([1]; Nt2 transfectants, 24 hr treatment with staurosporine (data not shown)) | apoptosis (percentage of condensed nuclei among EGFP+ transfectants) ([1]; recombinant expression in Nt2 stem cells, 100 nM staurosporine for 3 hrs, controls 45%)
1 | B1 | had no effect | – | – | – | – | –
2 | B2 | – | interacted with all three Gα proteins | interacted with all three Gα proteins | interacted with all three Gα proteins | blocked cell death | 13.5%
3 | B3 | suppressed the induction of nuclear condensation to the same levels as BBP1 | strong response | none | exhibited interaction | – | –
